Laboratory results taken from IntAct's records for PubMed 31515488.

B1: Transcription factor 12 (Homo sapiens), Q99081-3 (parent)
chain: MNPQQQRMAAIGTDKELSDLLDFSAMFSPPVNSGKTRPTTLGSSQFSGSGIDERGGTTSWGTSGQPSPSYDSSRGFTDSPHYSDHLNDSRLGAHEGLSPTPFMNSNLMGKTSERGSFSLYSRDTGLPGCQSSLLRQDLGLGSPAQLSSSGKPGTAYYSFSATSSRRRPLHDSAALDPLQAKKVRKVPPGLPSSVYAPSPNSDDFNRESPSYPSPKPPTSMFASTFFMQDGTHNSSDLWSSSNGMSQPGFGGILGTSTSHMSQSSSYGNLHSHDRLSYPPHSVSPTDINTSLPPMSSFHRGSTSSSPYVAASHTPPINGSDSILGTRGNAAGSSQTGDALGKALASIYSPDHTSSSFPSNPSTPVGSPSPLTGTSQWPRPGGQAPSSPSYENSLHSLKNRVEQQLHEHLQDAMSFLKDVCEQSRMEDRLDRLDDAIHVLRNHAVGPSTSLPAGHSDIHSLLGPSHNAPIGSLNSNYGGSSLVASSRSASMVGTHREDSVSLNGNHSVLSSTVTTSSTDLNHKTQENYRGGLQSQSGTVVTTEIKTENKEKDENLHEPPSSDDMKSDDESSQKDIKVSSRGRTSSTNEDEDLNPEQKIEREKERRMANNARERLRVRDINEAFKELGRMCQLHLKSEKPQTKLLILHQAVAVILSLEQQVRERNLNPKAACLKRREEEKVSAVSAEPPTTLPGTHPGLSETTNPMGHM
partner: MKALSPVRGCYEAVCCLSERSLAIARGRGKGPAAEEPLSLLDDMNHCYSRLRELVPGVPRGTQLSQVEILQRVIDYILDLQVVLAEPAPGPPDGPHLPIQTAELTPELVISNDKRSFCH
B2: Protein transport protein (Homo sapiens), Q15437 (parent)
chain: MATYLEFIQQNEERDGVRFSWNVWPSSRLEATRMVVPLACLLTPLKERPDLPPVQYEPVLCSRPTCKAVLNPLCQVDYRAKLWACNFCFQRNQFPPAYGGISEVNQPAELMPQFSTIEYVIQRGAQSPLIFLYVVDTCLEEDDLQALKESLQMSLSLLPPDALVGLITFGRMVQVHELSCEGISKSYVFRGTKDLTAKQIQDMLGLTKPAMPMQQARPAQPQEHPFASSRFLQPVHKIDMNLTDLLGELQRDPWPVTQGKRPLRSTGVALSIAVGLLEGTFPNTGARIMLFTGGPPTQGPGMVVGDELKIPIRSWHDIEKDNARFMKKATKHYEMLANRTAANGHCIDIYACALDQTGLLEMKCCANLTGGYMVMGDSFNTSLFKQTFQRIFTKDFNGDFRMAFGATLDVKTSRELKIAGAIGPCVSLNVKGPCVSENELGVGGTSQWKICGLDPTSTLGIYFEVVNQHNTPIPQGGRGAIQFVTHYQHSSTQRRIRVTTIARNWADVQSQLRHIEAAFDQEAAAVLMARLGVFRAESEEGPDVLRWLDRQLIRLCQKFGQYNKEDPTSFRLSDSFSLYPQFMFHLRRSPFLQVFNNSPDESSYYRHHFARQDLTQSLIMIQPILYSYSFHGPPEPVLLDSSSILADRILLMDTFFQIVIYLGETIAQWRKAGYQDMPEYENFKHLLQAPLDDAQEILQARFPMPRYINTEHGGSQARFLLSKVNPSQTHNNLYAWGQETGAPILTDDVSLQVFMDHLKKLAVSSAC
partner: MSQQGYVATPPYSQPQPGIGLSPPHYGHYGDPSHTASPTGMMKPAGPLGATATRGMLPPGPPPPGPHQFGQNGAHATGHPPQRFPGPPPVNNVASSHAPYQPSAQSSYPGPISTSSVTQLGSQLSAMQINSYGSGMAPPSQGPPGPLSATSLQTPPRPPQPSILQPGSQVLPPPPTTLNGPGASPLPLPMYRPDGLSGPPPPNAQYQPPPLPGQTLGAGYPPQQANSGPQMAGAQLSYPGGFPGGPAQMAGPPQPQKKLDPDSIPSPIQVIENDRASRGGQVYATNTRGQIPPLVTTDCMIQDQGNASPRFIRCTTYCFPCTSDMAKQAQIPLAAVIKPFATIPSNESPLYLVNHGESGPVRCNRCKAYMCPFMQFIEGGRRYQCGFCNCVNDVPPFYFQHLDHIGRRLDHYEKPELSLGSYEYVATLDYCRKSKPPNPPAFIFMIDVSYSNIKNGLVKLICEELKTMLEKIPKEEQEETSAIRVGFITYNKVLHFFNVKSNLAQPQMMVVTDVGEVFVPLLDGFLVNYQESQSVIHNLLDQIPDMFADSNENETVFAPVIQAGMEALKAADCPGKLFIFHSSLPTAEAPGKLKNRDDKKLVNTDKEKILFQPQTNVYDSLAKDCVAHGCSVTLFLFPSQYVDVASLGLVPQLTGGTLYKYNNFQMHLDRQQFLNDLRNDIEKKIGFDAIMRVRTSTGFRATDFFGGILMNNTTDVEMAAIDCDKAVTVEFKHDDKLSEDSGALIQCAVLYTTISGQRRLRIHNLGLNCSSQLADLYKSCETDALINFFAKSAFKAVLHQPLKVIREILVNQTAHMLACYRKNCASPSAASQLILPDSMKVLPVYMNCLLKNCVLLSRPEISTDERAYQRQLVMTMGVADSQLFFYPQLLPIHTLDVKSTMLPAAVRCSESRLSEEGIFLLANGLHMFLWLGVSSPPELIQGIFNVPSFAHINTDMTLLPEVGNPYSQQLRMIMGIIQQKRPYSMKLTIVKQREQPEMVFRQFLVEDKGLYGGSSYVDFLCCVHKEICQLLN
B3: Consortin (Homo sapiens), Q6PJW8 (parent)
chain: MDDSDTPTYYLQIEPQDGCHPGDSVERSVTCLPSASDENENQLDGDGHEHLTSSDSAMGKPQVSEQDSLNNNESCTLSCEVAAGENLQNTLCEASRDEQAFLGKDKKIPGKRSPRSKKGTAKKIPPGLFSGDIAPLMQEKVLSAVTYAVDDEEAAEVNANEQPEAPKLVLQSLFSLIRGEVEQLDSRALPLCLHQIAESYFQEEDYEKAMKFIQLERLYHEQLLANLSAIQEQWETKWKTVQPHTVTALRNSEKGFNGEDFERLTKICATHQDPLLSKHKIAAVEKSQERKCSTQLLVSEDPKEGGATTKESESKTCLGTESSKESQHTVEPLGSSPCCHQMDVQTDSPSLSVTAGKDHMEELLCSAEATLALHTQSSETAGSPSGPDSSEDACEDDSRLQLAQTEACQDVARIEGIAEDPKVFLSSKSKTEPLISPGCDRIPPALISEGKYSQAQRKELRLPLRDASEALPTDQLENNELNELQQPDLTDSDGKSPQAQADSDGSENVLCGNNQISDLGILLPEVCMAPEEKGDKDDQLNKETEDYLNSLLEGCLKDTEDSLSYEDNQDDDSDLLQDLSPEEASYSLQENLPSDESCLSLDDLAKRIEIAEVVPTEGLVSILKKRNDTVGDHPAQMQHKPSKRRVRFQEIDDSLDQDEVGGGSCILLVLLCIATVFLSVGGTALYCTFGDMESPVCTDFADNMDFYYTKLLQGVAELKHWIYLS
B4: Isoform 1 of Myotubularin-related protein 9 (Homo sapiens), Q96QG7-1 (parent)
chain: MEFAELIKTPRVDNVVLHRPFYPAVEGTLCLTGHHLILSSRQDNTEELWLLHSNIDAIDKRFVGSLGTIIIKCKDFRIIQLDIPGMEECLNIASSIEALSTLDSITLMYPFFYRPMFEVIEDGWHSFLPEQEFELYSSATSEWRLSYVNKEFAVCPSYPPIVTVPKSIDDEALRKVATFRHGGRFPVLSYYHKKNGMVIMRSGQPLTGTNGRRCKEDEKLINATLRAGKRGYIIDTRSLNVAQQTRAKGGGFEQEAHYPQWRRIHKSIERYHILQESLIKLVEACNDQTHNMDRWLSKLEASNWLTHIKEILTTACLAAQCIDREGASILIHGTEGTDSTLQVTSLAQIILEPRSRTIRGFEALIEREWLQAGHPFQQRCAQSAYCNTKQKWEAPVFLLFLDCVWQILRQFPCSFEFNENFLIMLFEHAYASQFGTFLGNNESERCKLKLQQKTMSLWSWVNQPSELSKFTNPLFEANNLVIWPSVAPQSLPLWEGIFLRWNRSSKYLDEAYEEMVNIIEYNKELQAKVNILRRQLAELETEDGMQESP
partner: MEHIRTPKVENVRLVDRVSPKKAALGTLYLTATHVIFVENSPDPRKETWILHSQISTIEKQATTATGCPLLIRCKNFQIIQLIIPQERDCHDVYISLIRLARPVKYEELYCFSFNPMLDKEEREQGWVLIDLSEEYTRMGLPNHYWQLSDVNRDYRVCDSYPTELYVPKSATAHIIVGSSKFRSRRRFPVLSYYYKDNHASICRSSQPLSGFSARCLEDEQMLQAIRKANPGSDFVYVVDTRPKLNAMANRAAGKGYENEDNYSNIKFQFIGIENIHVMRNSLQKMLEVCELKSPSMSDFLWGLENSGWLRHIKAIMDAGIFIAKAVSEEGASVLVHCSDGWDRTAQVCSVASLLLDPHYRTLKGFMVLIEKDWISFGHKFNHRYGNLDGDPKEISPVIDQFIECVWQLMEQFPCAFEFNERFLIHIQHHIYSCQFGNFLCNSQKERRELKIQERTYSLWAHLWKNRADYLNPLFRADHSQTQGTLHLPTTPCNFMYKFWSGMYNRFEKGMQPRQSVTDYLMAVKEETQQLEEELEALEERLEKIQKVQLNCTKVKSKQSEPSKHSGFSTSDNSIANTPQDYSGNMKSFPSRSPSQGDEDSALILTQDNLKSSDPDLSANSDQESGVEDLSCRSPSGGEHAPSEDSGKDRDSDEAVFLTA

Variants of: B1
Conditions: with id3_human ID3, Q02535

Variant	effect of a mutation on the interaction
A155T	with no effect
N606H	with no effect
R74G	with no effect
A482V	with no effect
S446F	with no effect

Variants of: B2
Conditions: with sc24d_human SEC24D

Variant	effect of a mutation on the interaction
V426I	with no effect

Variants of: B3
Conditions: with rop1a_human ROPN1, Q9HAT0
Chain of rop1a_human ROPN1, Q9HAT0 (Q9HAT0 whole entry): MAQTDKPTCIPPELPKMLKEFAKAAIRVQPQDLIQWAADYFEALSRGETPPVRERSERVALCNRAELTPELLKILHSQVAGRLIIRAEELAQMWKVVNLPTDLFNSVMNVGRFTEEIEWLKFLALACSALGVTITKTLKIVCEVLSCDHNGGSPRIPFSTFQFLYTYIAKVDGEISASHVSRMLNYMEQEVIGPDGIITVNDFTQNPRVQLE

Variant	effect of a mutation on the interaction
Q183R	with no effect
R399C	with no effect

Variants of: B4
Conditions: with mtmr7_human MTMR7, Q9Y216

Variant	effect of a mutation on the interaction
MEFAELIKTPRVDNVVLHRPFYPAVEGTLCLTGHHLILSSRQDNTEELWLLHSNIDAIDKRFVGSLGTIIIKCKDFRIIQLDIPGMEECLNIASSIEALSTLDSITLMYPFFYRPMFEVIEDGWHSILPEQEFELYSSATSEWRLSYVNKEFAVCPSYPPIVTVPKSIDDEALRKVATFRHGGRFPVLSYYHKKNGMVIMRSGQPLTGTNGRRCKEDEKLINATLRAGKRGYIIDTRSLNVAQQTRAKGGGFEQEAHYPQWRRIHKSIERYHILQESLIKLVEACNDQTHNMDRWLSKLEASNWLTHIKEILTTACLAAQCIDREGASILIHGTEGTDSTLQVTSLAQIILEPRSRTIRGFEALIEREWLQAGHPFQQRCAQSAYCNTKQKWEAPVFLLFLDCVWQILRQFPCSFEFNENFLIMLFEHAYASQFGTFLGNNESERCKLKLQQKTMSLWSWVNQPSELSKFTNPLFEANNLVIWPSVAPQSLPLWEGIFLRWNRSSKYLDEAYEEMVNIIEYNKELQAKVNILRRQLAELETEDGMQESP [F127I]	with no effect

Variants of: B4
Conditions: with mtmr7_human MTMR7, Q9Y216
Remark: another data set of the same source

Variant	effect of a mutation on the interaction
MEFAELIKTPRVDNVVLHRPFYPAVEGTLCLTGHHLILSSRQDNTEELWLLHSNIDAIDKRFVGSLGTIIIKCKDFRIIQLDIPGMEECLNIASSIEALSTLDSITLMYPFFYRPMFEVIEDGWHCFLPEQEFELYSSATSEWRLSYVNKEFAVCPSYPPIVTVPKSIDDEALRKVATFRHGGRFPVLSYYHKKNGMVIMRSGQPLTGTNGRRCKEDEKLINATLRAGKRGYIIDTRSLNVAQQTRAKGGGFEQEAHYPQWRRIHKSIERYHILQESLIKLVEACNDQTHNMDRWLSKLEASNWLTHIKEILTTACLAAQCIDREGASILIHGTEGTDSTLQVTSLAQIILEPRSRTIRGFEALIEREWLQAGHPFQQRCAQSAYCNTKQKWEAPVFLLFLDCVWQILRQFPCSFEFNENFLIMLFEHAYASQFGTFLGNNESERCKLKLQQKTMSLWSWVNQPSELSKFTNPLFEANNLVIWPSVAPQSLPLWEGIFLRWNRSSKYLDEAYEEMVNIIEYNKELQAKVNILRRQLAELETEDGMQESP [S126C]	with no effect
